Data taken from paper PMC3936775, “Differential contribution of basic residues to HIV-1 nucleocapsid protein’s nucleic acid chaperone function and retroviral replication”.

Tests used:
[1] = molecular target: HIV-1 NC WT (HIV-1 (NL4-3 isolate)) (UniProt P12493); experiment: fluorescence anisotropy; conditions: FA: 20 mM HEPES pH 7.5, 50 mM NaCl, 10 uM TCEP, 5 mM beta-mercaptoethanol, 1 uM zinc acetate, 20 C, 30 min; 20 nM micro-TAR RNA or 10 nM (TG)4 DNA (Table …)
[2] = molecular target: HIV-1 NC WT (HIV-1 (NL4-3 isolate), UniProt P12493 378-432); experiment: fluorescence anisotropy; 1 uM zinc acetate; FA: 20 mM HEPES pH 7.5, 50 mM NaCl, 10 uM TCEP, 5 mM beta-mercaptoethanol, 1 uM zinc acetate, 20 C, 30 min; 20 nM micro-TAR RNA or 10 nM (TG)4 DNA (Table 1 footnote: room temperature); conditions: protein: recombinant; label: 5' carboxyfluorescein (FAM); single strand

Molecule	Kd [1] [nM]	Kd [2] [nM]
micro-TAR RNA 18-mer	315	–
TGTGTGTG (ssDNA) [(TG)4 DNA]	–	5 ± 1
